Measurements reported in patent US7892767B2, “Phosphospecific chemokine receptor antibodies” (Washington University in St. Louis, priority 2005, dated 2011).

Biological target: T1, CXCR4 (Homo sapiens, UniProt P61073)
T1 construct: lysates from the glioblastoma cell line LN428, which is known to express high levels of CXCR4; endogenous in cells; host or cells: LN428 GBM cell line
Test: Stimulated CXCR4 phosphorylation in LN428 GBM cells (western blot)
Assay type: cell-based
Protocol: Cell Culture, transfections and stimulation of CXCR4 phosphorylation. The U87 glioblastoma multiforme (GBM, grade IV) cell line was obtained from the American Type Culture Collection. The LN428 GBM cell line was a kind gift of Dr Erwin van Meir (Winship Cancer Center, Emory University, Atlanta, Ga.). U87 cells were grown in minimum essential a media supplemented with 10% fetal bovine serum ((FBS), Biomedia, Foster City, Calif.). LN428 cells were grown in DMEM (Fisher, Pittsburgh, Pa.) supplemented with 10% horse serum (Sigma). All cells were grown in the presence of penicillin-streptomycin. The coding sequence for human CXCR4 was obtained by high fidelity RT-PCR (Superscript III Platinum, Invitrogen), and cloned into the expression vector pMSCVneo (Clontech, Palo Alto, Calif.). Transfections were performed with 0.3 μg of plasmid DNA in 20 μl Lipofectamine (Invitrogen)/35 mm^2 tissue culture dish for 9 hours according to the manufacturer's instructions. Cells recovered in Optimem supplemented with 10% FBS. Transfected and non-transfected cells were placed in serum free media for 24 hours prior to treatment with agents to stimulate CXCR4 phosphorylation. Treatment was usually for 0 or 10 minutes with 1 μg/ml CXCL12 (Peprotech, Rocky Hill N.J.), 4 μM 4-Phorbol 12-myristate 13-acetate (PMA) or 10 nM EGF. In some experiments, CXCL12 was washed away and cells were incubated for an additional 20 minutes in serum free media alone.
Western Blot Analysis. […] Peroxide activity was detected using the enhanced chemiluminescence Supersignal West Dura system (Pierce, Rockford, Ill.). […]
The utility of these antibodies for evaluating the relationship between ligand binding and CXCR4 function is dependent upon their ability to distinguish a ligand activated form of the receptor. […] Serum starved LN428 cells were treated with 1 μg/ml CXCL12 for 0 or 10 minutes and the abundance of phospho-CXCR4 was determined by western blot and immuno-localization in fixed cells. […]

[1] = 1 μg/ml CXCL12, 4 μM PMA or 10 nM EGF

T1 sequence (P61073 whole entry): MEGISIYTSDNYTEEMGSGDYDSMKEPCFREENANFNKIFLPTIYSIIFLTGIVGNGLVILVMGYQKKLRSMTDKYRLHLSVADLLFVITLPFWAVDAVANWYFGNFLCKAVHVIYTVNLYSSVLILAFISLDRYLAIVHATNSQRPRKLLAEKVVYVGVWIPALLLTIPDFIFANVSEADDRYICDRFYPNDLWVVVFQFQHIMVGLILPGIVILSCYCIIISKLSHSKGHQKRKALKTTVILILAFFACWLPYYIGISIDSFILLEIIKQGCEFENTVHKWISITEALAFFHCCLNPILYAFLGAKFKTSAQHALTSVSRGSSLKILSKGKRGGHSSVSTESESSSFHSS

P338 phosphorylation stimulated [1]: not
P339 phosphorylation [1]: stimulated
P339-CXCR4 immunoreactivity compared with response to CXCL12 (4 μM PMA or 10 nM EGF): greater
B1: EGF: growth factor, ligand of the EGF receptor (protein, UniProt P01133 23-1207, looked up)
Pro-epidermal growth factor: PQHWSCPEGTLAGNGNSTCVGPAPFLIFSHGNSIFRIDTEGTNYEQLVVDAGVSVIMDFHYNEKRIYWVDLERQLLQRVFLNGSRQERVCNIEKNVSGMAINWINEEVIWSNQQEGIITVTDMKGNNSHILLSALKYPANVAVDPVERFIFWSSEVAGSLYRADLDGVGVKALLETSEKITAVSLDVLDKRLFWIQYNREGSNSLICSCDYDGGSVHISKHPTQHNLFAMSLFGDRIFYSTWKMKTIWIANKHTGKDMVRINLHSSFVPLGELKVVHPLAQPKAEDDTWEPEQKLCKLRKGNCSSTVCGQDLQSHLCMCAEGYALSRDRKYCEDVNECAFWNHGCTLGCKNTPGSYYCTCPVGFVLLPDGKRCHQLVSCPRNVSECSHDCVLTSEGPLCFCPEGSVLERDGKTCSGCSSPDNGGCSQLCVPLSPVSWECDCFPGYDLQLDEKSCAASGPQPFLLFANSQDIRHMHFDGTDYGTLLSQQMGMVYALDHDPVENKIYFAHTALKWIERANMDGSQRERLIEEGVDVPEGLAVDWIGRRFYWTDRGKSLIGRSDLNGKRSKIITKENISQPRGIAVHPMAKRLFWTDTGINPRIESSSLQGLGRLVIASSDLIWPSGITIDFLTDKLYWCDAKQSVIEMANLDGSKRRRLTQNDVGHPFAVAVFEDYVWFSDWAMPSVMRVNKRTGKDRVRLQGSMLKPSSLVVVHPLAKPGADPCLYQNGGCEHICKKRLGTAWCSCREGFMKASDGKTCLALDGHQLLAGGEVDLKNQVTPLDILSKTRVSEDNITESQHMLVAEIMVSDQDDCAPVGCSMYARCISEGEDATCQCLKGFAGDGKLCSDIDECEMGVPVCPPASSKCINTEGGYVCRCSEGYQGDGIHCLDIDECQLGEHSCGENASCTNTEGGYTCMCAGRLSEPGLICPDSTPPPHLREDDHHYSVRNSDSECPLSHDGYCLHDGVCMYIEALDKYACNCVVGYIGERCQYRDLKWWELRHAGHGQQQKVIVVAVCVVVLVMLLLLSLWGAHYYRTQKLLSKNPKNPYEESSRDVRSRRPADTEDGMSSCPQPWFVVIKEHQDLKNGGQPVAGEDGQAADGSMQPTSWRQEPQLCGMGTEQGCWIPVSSDKGSCPQVMERSFHMPSYGTQTLEGGVEKPHSLLSANPLWQQRALDPPHQMELTQ
modifications: Pro-epidermal growth factor
notes: growth factor, ligand of the EGF receptor
